Laboratory results as given in the supplement of paper PMC9876800.

Test system: peptide library, one residue held at a place counted from the S/T acceptor
Test: relative phosphorylation of the sub-library (ratio to the mean residue at this position); higher = residue favoured
Summary of the method: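 In 384-well plates, purified recombinant kinases (human or orthologue constructs) were incubated for 90 min under kinase-specific conditions with 50 μM biotinylated degenerate peptide sub-libraries and 50 μM ATP spiked with γ-32P-ATP. Each sub-library fixed a single residue at one position around a central Ser/Thr. Relative sub-library phosphorylation, measured by phosphorimaging and densitometry of streptavidin membrane spots, is given as a ratio to the mean residue at that position.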

Chain of CDK12, construct: aa714-1063, human (Q9NYV4 714-1063, looked up): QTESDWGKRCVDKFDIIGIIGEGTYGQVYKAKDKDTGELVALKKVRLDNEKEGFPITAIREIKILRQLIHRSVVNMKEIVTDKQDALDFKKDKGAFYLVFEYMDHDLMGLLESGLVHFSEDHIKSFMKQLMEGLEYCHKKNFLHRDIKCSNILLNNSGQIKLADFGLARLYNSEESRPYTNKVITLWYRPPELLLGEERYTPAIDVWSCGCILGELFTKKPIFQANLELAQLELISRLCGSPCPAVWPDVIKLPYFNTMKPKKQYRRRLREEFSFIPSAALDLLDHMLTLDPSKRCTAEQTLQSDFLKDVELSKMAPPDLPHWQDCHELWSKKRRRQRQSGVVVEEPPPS

CDK5, construct: Full length, human (from UniProt Q00535)
relative phosphorylation
Settings	at +1	at +2	at +3	at +4	at -1	at -2	at -3	at -4	at -5
A fixed	0.423	1.13	0.791	1.07	1.16	1.08	1.05	1.15	1.22
D fixed	0.262	0.357	0.165	0.478	0.753	0.717	0.92	1.1	1.24
E fixed	0.305	0.516	0.12	0.512	0.747	0.842	1.02	0.993	1.03
F fixed	0.227	0.765	0.485	0.679	0.557	0.765	0.65	0.801	0.925
G fixed	1.25	1.06	0.809	1.56	1.86	1.21	1.47	1.47	1.35
H fixed	0.344	1.19	3.07	1.27	0.925	1.03	1.12	1.05	1.03
I fixed	0.261	0.87	0.444	0.828	0.346	0.646	0.742	0.642	0.63
K fixed	0.374	2.44	3.21	1.92	1.49	0.85	1.05	1.07	1.26
L fixed	0.278	0.831	0.536	0.754	0.697	0.958	0.673	0.689	0.625
M fixed	0.382	0.869	0.542	0.967	0.995	1.01	0.894	0.86	0.725
N fixed	0.569	0.828	1.08	0.81	1.17	1.01	1.17	1	0.916
P fixed	10.5	0.464	0.63	0.829	1.49	2.71	1.8	1.61	1.45
Q fixed	0.492	0.971	0.636	1.05	1.24	0.998	1.06	0.952	0.979
R fixed	0.373	2	3.14	1.57	1.48	0.788	1.06	0.988	1.07
V fixed	0.377	0.926	0.397	0.904	0.568	0.788	0.75	0.695	0.757
W fixed	0.285	0.763	0.463	0.957	0.722	0.786	0.811	1.1	0.766
Y fixed	0.258	1.01	0.49	0.836	0.805	0.817	0.763	0.825	1.01
pThr fixed	0.518	0.434	0.412	0.38	0.408	0.721	0.956	0.995	0.939
pTyr fixed	0.513	0.44	0.344	0.453	0.548	0.748	0.822	0.835	1.01

CDK12, construct: aa714-1063, human (from UniProt Q9NYV4)
relative phosphorylation
Settings	at +1	at +2	at +3	at +4	at -1	at -2	at -3	at -4	at -5
A fixed	0.323	0.895	0.799	0.848	1.09	1.19	1.04	1.11	1.13
D fixed	0.154	0.546	0.392	0.912	0.38	0.47	0.629	0.861	0.879
E fixed	0.155	0.5	0.446	0.923	0.438	0.456	0.707	0.9	0.735
F fixed	0.341	0.984	0.553	0.891	0.844	0.667	0.778	1.07	1.21
G fixed	0.715	1.28	0.854	1.43	1.58	1.7	2.58	1.27	1.09
H fixed	0.261	1.21	1.79	1.44	0.876	0.811	0.897	1.04	1.01
I fixed	0.309	0.911	0.929	0.828	0.364	0.973	0.971	0.891	0.868
K fixed	0.27	1.34	0.977	0.804	1.01	0.659	0.63	0.832	0.847
L fixed	0.36	0.853	0.545	0.765	0.834	0.863	0.754	0.946	0.939
M fixed	0.357	1.16	0.523	0.832	1.65	1.28	0.819	1.04	0.924
N fixed	0.227	0.992	0.721	0.973	0.801	0.713	0.686	0.893	0.82
P fixed	12.1	0.747	1.26	0.992	1.08	1.84	1.33	1.06	1.28
Q fixed	0.243	0.828	0.709	0.889	0.982	0.738	0.637	0.763	0.883
R fixed	0.281	1.77	3.97	0.962	2.34	1.58	1.75	1.02	1.03
V fixed	0.319	0.846	0.71	0.73	0.467	0.906	0.762	0.784	0.899
W fixed	0.283	0.933	0.881	1.58	1.1	1.2	0.927	1.35	1.19
Y fixed	0.274	1.2	0.934	1.21	1.17	0.956	1.1	1.19	1.27
pThr fixed	0.363	0.528	0.566	0.999	0.336	0.48	0.83	0.846	0.975
pTyr fixed	0.378	0.504	0.859	1.29	1.16	0.719	0.908	0.998	0.975
